{"source": "patent US20130055470"}
{"molecular_target": "ubiquitin"}
{"protein": "OsTR1-1 protein (protein) MGDHVAVDVGGLMASRGAGEEETGALIGMVECRICQEEDLAKNLESPCACSGSLKYAHRECVQRWCNEKGDIICEICHVSYKPGYTAPPQVHHDETTIEISSGDWSISGNRLDLHDPRILAMAAAQHRLLEDEYDEYTATNNNAAAFCRSIFLILMALLLLRHTLTITSSDDEDDASAIFSLFLLRAAGFLLPCYIMAWAISIMQRQRQRQEEAMLLPTEVAIILHRNGRTMQFAVAPESPTTPHPEQGQ", "E3 ubiquitin ligase activity (in vitro ubiquitination reaction, anti-Ub Western blot)": "multiple bands occurred in the lane with the addition of E1, E2, ATP and Ub, while no band occurred in the control"}
{"protein": "ZmTR1 protein (protein) MAGDDHVVVDVNGLAKSKDDGGSKKLSEDANGSAPAAASLSAAVDLVQEEEEEEGDGEEQPLIQAAECRICQEEDSVKNLEKPCACSGSLKYAHRACVQRWCNEKGDTTCEICHEEYKPGYTAPPRVQPDETTIDIDGDLVMDLRDPRILAVAAAQHRLLEAEYDGYASTDASGAAFCRSAALILMALLLLRHALSMSDNEGNDDDASTIFSLFLLRAAGFLLPCYIMAWIFSILHRRRQRQEEAALAAAEVAFILQSARGRALQFAIAPDSPATPQHEPVSQQQQ", "E3 ubiquitin ligase activity (in vitro ubiquitination reaction, anti-Ub Western blot)": "multiple bands occurred in the lane with the addition of E1, E2, ATP and Ub, while no band occurred in the control"}
{"protein": "AtTR1 protein (protein) MADHLSLCTDRLITSESLDSEKDSDSSGESSYRPQGTDLASSSVNETEVPREYYAVADEEEPLLQSVECRICQEEDSTKNLEAPCACNGSLKYAHRKCVQRWCNEKGDITCEICHQPYQHGYTAPPPPPPDETIIHIGDDWENGVPLDLTDPRILAMAAAERHFLEADYDEYSENNSSGAAFCRSAALILMALLLLRDALNLTTNPDDEDDPTAFFSLFLLRAAGFLLPCYIMAWAIGILQRRRQRQEAAALAAAEVTFMIHGGGPQRRGLHFAVAPQPPISNVPTPV", "E3 ubiquitin ligase activity (in vitro ubiquitination reaction, anti-Ub Western blot)": "multiple bands occurred in the lane with the addition of E1, E2, ATP and Ub, while no band occurred in the control"}
